How the values were obtained:
[1] = biological target: T1, OIF P particle (Norovirus NLV/IF1998/2003/Iraq, UniProt Q6B7R3); test: ELISA, oligosaccharide coated on plate; format: binding; details: P particles 10 μg/ml, coated synthetic oligosaccharide 2 μg/ml (polyvalent PAA conjugate in the blocking assay), 37 °C
T1 construct: P domain self-assembled to P particles of 830 kDa; GST fusion from E. coli BL21, GST cut off with thrombin

[2] = biological target: T2, OIF P domain (GII.21 OIF virus P dimer) (Norovirus NLV/IF1998/2003/Iraq, UniProt Q6B7R3); test: X-ray co-crystal structure, […] Å; details: co-crystallised without glycerol; 10 mM ligand; new HBGA site of B-, N- and T-loops; beta-Gal is major binding saccharide
T2 construct: P domain, residues 220-527, pGEX-6P-1 GST fusion in E. coli BL21(DE3), GST cut off with PreScission protease; dimer

[3] = biological target: P domain of the GII.21 OIF (Operation Iraqi Freedom) norovirus capsid protein VP1 (human norovirus GII.21 OIF virus); test: crystal structure
[4] = biological target: A antigen oligosaccharide; test: plate binding assay with coated oligosaccharides (OD450 read-out); details: P particles 10 μg/ml; oligosaccharides for plate coating at 2 μg/ml; parent: est. 0.04; read off a plot
[5] = biological target: Lea oligosaccharide; test: as above; details: P particles 10 μg/ml; oligosaccharides for plate coating at 2 μg/ml; parent: est. 0.85; read off a plot

For `CC(=O)N[C@H]1C(O)O[C@H](CO)[C@@H](O[C@@H]2O[C@@H](C)[C@@H](O)[C@@H](O)[C@@H]2O)[C@@H]1O[C@@H]1O[C@H](CO)[C@H](O)[C@H](O)[C@H]1O` (stereo partly drawn) [Le^a trisaccharide, β-Gal-(1,3)-(α-Fuc-(1,4))- GlcNAc], the “ELISA, oligosaccharide coated on plate” value [1] was “wild type P particle of OIF virus that binds strongly to Le^a oligosaccharide” and the “X-ray co-crystal structure, 2.00 Å” value [2] was “we co-crystallized the OIF P domain with Le^a trisaccharide”.

“P domain of the GII.21 OIF (Operation Iraqi Freedom) norovirus capsid protein VP1 (domain or fragment)” showed a stoichiometry N [3] of 2.

Work on wild type P particle of OIF virus D294A yielded a response [4] of 0.07 OD450 and a response [5] of 0.32 OD450.

Work on wild type P particle of OIF virus E358A yielded a response [4] of 0.08 OD450.
